According to patent US20250064890A1, “PROTEIN COMPOSITIONS FOR THE TREATMENT OF INFLAMMATORY DISEASES” (Unichem Laboratories Limited, priority 2021, published 2025):

Key:
Assay type in all cases: cell-based, human
[1] = system: oral (buccal) mucosa cells (TR146); assay: Cytoprotective effect against 5-FU induced damage (MTT)
Procedure: The cell viability was assessed by (MTT) assay and compared with positive control (Cells treated with Amifostine, EGCG and EGF and negative assay (untreated cells), wherein the control was the cells that underwent chemotherapy/radiotherapy.
The protective effect of the recombinant lectin on survival of TR146 cells against 5-FU induced damage was determined using following calculations:
The viability of cells was determined as: % Cell viability=(100−% Cytotoxicity); • where, the percentage cytotoxicity corresponding to each treatment was calculated as: % Cytotoxicity=[(R−X)/R]*100, wherein X=Absorbance of cells treated with 5-FU or radiation damage/TI+5-FU, R=Absorbance of Control cells (Untreated) and Percentage protection was calculated as:
{(Absorbance of TI+5-FU or radiation)−(Absorbance of 5-FU or radiation alone)/(Absorbance of Untreated)−(Absorbance of 5-FU alone)}*100

[2] = system: oral (buccal) mucosa cells (TR146); assay: Restoration of mitochondrial membrane potential (JC-1) against 5-FU induced damage; details: for MMP: mitochondrial membrane potential, red/green JC-1 fluorescence ratio
Procedure: Oral buccal mucosal cells (TR146) were incubated overnight in 5% CO2 incubator at 37° C. for 24 h. […] After 24 h of treatment, cells were exposed to damage (5-FU 5 mM) for 1.25 h for chemotherapy induced inflammation and exposed to gamma radiation (3.5 kGy) using Cobalt 60 for radiation induced inflammation. After the exposure, the anti-apoptotic effect of SEQ ID NO 2 was determined by restoration of mitochondrial membrane depolarization by JC-1 staining and reduction in apoptotic cell populations (Annexin positive and subG0/G1 cells in cell cycle analysis).
After incubation, the supernatants were discarded and 100 μl of JC1-dye solution (prepared by diluting 1 mM DMSO stock into 10 μM in 1×PBS) was added to each well. The cells were then incubated with the dye in CO2 incubator at 37° C. for 15 min, after which the supernatant was removed, and the cells were washed twice with 1×PBS. 100 μl of 1×PBS was finally added to each well. Red fluorescence (excitation 550 nm, emission 600 nm) and green fluorescence (excitation 485 nm, emission 535 nm) were measured using Biotek Synergy HT plate reader. The mitochondrial membrane potential (Δψm) was calculated as the ratio of intensity of red fluorescence to intensity of green fluorescence.
The percentage increase/restoration in mitochondrial membrane potential (MMP) was calculated as: % Increase=[(R−X)/R]*100 • Where, X=Δψm corresponding to TI+5-FU treated cells or TI+radiation treated cells; R=Δψm corresponding to control cells (FU damaged or Radiation damaged alone)

[3] = system: oral (buccal) mucosa cells (TR146); assay: Sub(G0/G1) cell population (cell cycle) against 5-FU induced damage; details: for % Decrease in Apoptotic cells (with respect to control): Sub G0/G1
Procedure: To determine the effect of test item on cell cycle, oral buccal mucosal cells (TR146) were incubated overnight in 5% CO2 incubator at 37° C. for 24 h. […] After 24 h of treatment, cells were exposed to chemotherapy (5-FU 10 mM) for 24 h or radiotherapy (Gamma radiation (3.5 kGy) using Cobalt 60) for 2 h.
After incubation, cells were harvested by trypsinization and processed for Cell cycle assay. Accordingly, cells were harvested into prelabeled centrifuge tubes and centrifuged at 450 g for 5 min at room temperature (RT, low brake). The supernatants were removed carefully and discarded. 1 ml of 1× phosphate buffer saline (PBS) was added to the pellet and resuspended gently to make homogenous suspension. Cells were centrifuged at 450 g for 5 min, RT (low brake). The supernatant was carefully removed leaving behind approx. 100 μl of PBS. Cells were resuspended gently yet thoroughly in residual PBS. Ice-cold 70% ethanol (100 μl) was added drop-wise into cells in each tube while vortexing at low speed (fixation step). Cells stored at 4° C. for 24 h were centrifuged at 450 g for 5 min, RT (low brake). The supernatant was carefully removed without touching the pellet and discarded. 1 ml of 1×PBS was added into pellet and resuspended gently. Cells were incubated for 1 minute at RT. Cells were centrifuged at 450 g for 5 min, RT (low brake). The supernatant was removed carefully without touching the pellet, leaving behind approx. 20-50 μl of PBS. 200 μl of cell cycle reagent was added into each tube. Cells were resuspended gently and mixed. Cells were incubated for 30 min at RT in the dark. The stained samples were transferred into 96-well plates and acquired on flow cytometer (Guava technologies). Percentage of cells in Sub (G0/G1) phase were determined based on the concept that cell cycle reagent contains PI stain, which stains DNA of cells in different phases of cell cycle; Sub (G0/G1), G1, S, G2 and M. Cells in Sub (G0/G1) phase correspond to apoptotic cells. Percent inhibition in apoptotic cells is determined by the formula:
=[(% Sub(G0/G1) cells in 5-FU/radiation alone)−(% Sub(G0/G1) cells in TI+5-FU/radiation)/% Sub(G0/G1) cells in 5-FU/radiation alone]*100

NF-kB = assay: Multiplex analysis, chemotherapy (5-FU), TR146 cell lysates
Procedure: Oral buccal mucosal cells (TR146) cells were incubated overnight at 37° C. in 5% CO2 incubator. […] The cells were then stimulated with 5-FU (10 mM) for another 24h for chemotherapy and with gamma radiation (3.5 kGy) using Cobalt 60 for radiotherapy. After 24 h, cell culture supernatants were collected from each well and stored at −20° C. till multiplex analysis. For NF-kB estimations, cell lysates were prepared. Levels of biomarkers were estimated using Magpix® multiplex machine. The cells treated with Amifostine (along with 5-FU or radiation) were considered as positive control (PC). Untreated cells (5-FU or radiation alone treated) were used as negative control (NC).
The percent modulation in each sample was determined as follows:
[{Concentration of biomarkers (pg/ml) in Control cells (5-FU or radiation alone treated)−Concentration of biomarkers (pg/ml) in SEQ ID NO: 2+5-FU or radiation treated cells)}/Concentration of biomarkers (pg/ml) in Control cells (5-FU or radiation alone treated)]*100

B1: SEQ ID NO 2: recombinant lectin, variant of the S. rolfsii lectin amino acid sequence (reported as Rec-2 in WO 2010/095143) (protein)
chain: TYKITVRVYQTNPDAFFHPVEKTVWKYANGGTWTITDDQHVLTMGGSGTSGTLRFHADNGESFTATFGVHNYKRWCDIVTNLAADETGMVINQQYYSQKNREEARERQLSNYQVKNAKGRNFQIVYTEAEGNDLHANLIIG
cell viability against 5-FU induced cell damage [1]: 56.8-78.4%
% Protection ([1]; 1 μg/ml + 5-FU (5 mM)): 26%
% Protection ([1]; 10 μg/ml + 5-FU (5 mM)): 50.6%
% Protection ([1]; 25 μg/ml + 5-FU (5 mM)): 51%
% Protection ([1]; 50 μg/ml + 5-FU (5 mM)): 63%
% Protection ([1]; 100 μg/ml + 5-FU (5 mM)): 53%
% Increase in MMP (with respect to control) ([2]; 0.01 μg/ml + 5FU): about 67%
MMP ([2]; 0.01 μg/ml + 5FU): 14.1
% Increase in MMP (with respect to control) ([2]; 0.1 μg/ml + 5FU): 67.5%
MMP ([2]; 0.1 μg/ml + 5FU): 14.2
% Increase in MMP (with respect to control) ([2]; 1 μg/ml + 5FU): 81.5%
MMP ([2]; 1 μg/ml + 5FU): 15.4
% Increase in MMP (with respect to control) ([2]; 10 μg/ml + 5FU): 79.6%
MMP ([2]; 10 μg/ml + 5FU): 15.2
% Increase in MMP (with respect to control) ([2]; 25 μg/ml + 5FU): 104.8%
MMP ([2]; 25 μg/ml + 5FU): 17.3
MMP ([2]; 50 μg/ml + 5FU): 17.8
% Increase in MMP (with respect to control) ([2]; 100 μg/ml + 5FU): 106.2%
MMP ([2]; 100 μg/ml + 5FU): 17.5
% Apoptotic cells (Sub G0/G1) ([3]; 0.1 μg/ml + 5FU (10 mM)): 11.4%
% Decrease in Apoptotic cells (with respect to control) ([3]; 0.1 μg/ml + 5FU (10 mM)): 63.1%
% Apoptotic cells (Sub G0/G1) ([3]; 10 μg/ml + 5FU (10 mM)): 6.8%
% Decrease in Apoptotic cells (with respect to control) ([3]; 10 μg/ml + 5FU (10 mM)): 78%
% Apoptotic cells (Sub G0/G1) ([3]; 25 μg/ml + 5FU (10 mM)): 14.2%
% Decrease in Apoptotic cells (with respect to control) ([3]; 25 μg/ml + 5FU (10 mM)): 54.1%
% Apoptotic cells (Sub G0/G1) ([3]; 50 μg/ml + 5FU (10 mM)): 40.7%
% Decrease in Apoptotic cells (with respect to control) ([3]; 50 μg/ml + 5FU (10 mM)): −32.0%
Percentage Inhibition NF-kB (NF-kB; 0.1 μg/ml + 5-FU (10 mM)): 88.6%
Percentage Inhibition NF-kB (NF-kB; 10 μg/ml + 5-FU (10 mM)): 98.4%
Percentage Inhibition NF-kB (NF-kB; 25 μg/ml + 5-FU (10 mM)): 59.7%
Percentage Inhibition NF-kB (NF-kB; 50 μg/ml + 5-FU (10 mM)): 53%
Percentage Inhibition NF-kB (NF-kB; 100 μg/ml + 5-FU (10 mM)): 84.3%
